Laboratory results taken from the supplement of paper PMC6757056.
± gives the standard deviation of the averaged measurements.

B1: library; a variant is named by its letters at N, in order (parent)
chain: GCUGUCACCGAGAAACUGUGAAGUAUAUCUUAAACCUGGGCACUUAAAAGAUAUAUGGAGUUAGUAGUGCAACCUGCUCGGUCUGAUGAGUCCNNNNNNGGACGAAACAGC

How the values were obtained:
cyclic di-GMP [1] = variants of: B1; assay: normalized RNA/DNA level without ligand (relative to sTRSVctl = 100) (log10 (% of sTRSVctl)); HEK293T; ligand: cyclic di-GMP (c-di-GMP-II aptamer); higher = less ribozyme self-cleavage, higher mRNA level; conditions: reporter: mCherry (pCS4076), ligand present: no
How it was run: (§1)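 HEK293T cells received ligand, where used, 1 h before being transfected with 4 µg per 6-well well of library plasmids encoding reporter-linked ribozyme switches. After 72 h, RNA was extracted with EDTA and sequenced. RNA level was derived from RNA reads per DNA read, normalized to a spiked-in non-cleaving sequence or the top sequences, then scaled and log-transformed. Values were ×100 then log10, the top set was 25 sequences, and the minimum was 100 DNA reads.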

cyclic di-GMP [2] = variants of: B1; assay: normalized RNA/DNA level with ligand (relative to sTRSVctl = 100) (log10 (% of sTRSVctl)); HEK293T; ligand: cyclic di-GMP (c-di-GMP-II aptamer); ligand concentration (+) RNA-Seq: 1 mM; higher = less ribozyme self-cleavage, higher mRNA level; conditions: reporter: mCherry (pCS4076), ligand present: yes
How it was run: as §1

| Variant | normalized RNA/DNA level without ligand (log10) (cyclic di-GMP [1]) | normalized RNA/DNA level with ligand (log10) (cyclic di-GMP [2]) |
| --- | --- | --- |
| GAAGGC | 1.62 ± 0.023 | 1.79 ± 0.13 |
| GAAGGG | 1.53 ± 0.048 | 1.69 ± 0.079 |
| GACCGC | 1.81 ± 0.036 | 1.8 ± 0.083 |
| GACCGU | 1.74 ± 0.066 | 1.86 ± 0.03 |
| CAAGUG | 1.68 ± 0.045 | 1.84 ± 0.12 |
| CAAGUC | 1.7 ± 0.055 | 1.78 ± 0.14 |
| GACGCU | 1.71 ± 0.043 | 1.81 ± 0.097 |
| GACGCC | 1.75 ± 0.092 | 1.83 ± 0.11 |
| GACGCA | 1.77 ± 0.055 | 1.88 ± 0.085 |
| GACGCG | 1.81 ± 0.055 | 1.88 ± 0.045 |
| GACGGG | 1.76 ± 0.027 | 1.85 ± 0.062 |
| GACGGU | 1.633 ± 0.0071 | 1.8 ± 0.11 |
| GACGGC | 1.627 ± 0.0064 | 1.72 ± 0.088 |
| UACGUA | 1.64 ± 0.018 | 1.8 ± 0.056 |
| CACCGU | 1.706 ± 0.0036 | 1.81 ± 0.092 |
| CACCGG | 1.754 ± 0.011 | 1.89 ± 0.12 |
| CACCGA | 1.6252 ± 0.00013 | 1.8 ± 0.1 |
| CACCGC | 1.759 ± 0.015 | 1.85 ± 0.13 |
| GACAAA | 1.47 ± 0.11 | 1.66 ± 0.077 |
| GACAAU | 1.59 ± 0.062 | 1.74 ± 0.071 |
| CACAAC | 1.59 ± 0.028 | 1.77 ± 0.085 |
| CACAAU | 1.47 ± 0.11 | 1.68 ± 0.097 |
| CACAAG | 1.66 ± 0.017 | 1.83 ± 0.11 |
| UACGCG | 1.81 ± 0.04 | 1.9 ± 0.11 |

| Variant | normalized RNA/DNA level without ligand (log10) (cyclic di-GMP [1]) | normalized RNA/DNA level with ligand (log10) (cyclic di-GMP [2]) |
| --- | --- | --- |
| UACGCC | 1.77 ± 0.021 | 1.87 ± 0.12 |
| UACGCA | 1.78 ± 0.018 | 1.89 ± 0.067 |
| GAAUCA | 1.638 ± 0.0066 | 1.82 ± 0.1 |
| GAAUCC | 1.75 ± 0.058 | 1.86 ± 0.076 |
| GAAUCU | 1.698 ± 0.0076 | 1.82 ± 0.12 |
| GAAUCG | 1.67 ± 0.041 | 1.8 ± 0.096 |
| CAAUCG | 1.77 ± 0.039 | 1.89 ± 0.16 |
| AACAGC | 1.63 ± 0.078 | 1.78 ± 0.14 |
| AACAGG | 1.5 ± 0.036 | 1.66 ± 0.14 |
| AACCGA | 1.5 ± 0.1 | 1.61 ± 0.089 |
| AACCGU | 1.54 ± 0.056 | 1.74 ± 0.091 |
| AACCGC | 1.718 ± 0.0043 | 1.86 ± 0.1 |
| GAAGUC | 1.59 ± 0.021 | 1.74 ± 0.038 |
| GAAGUA | 1.64 ± 0.021 | 1.76 ± 0.061 |
| GAAGUG | 1.732 ± 0.0044 | 1.81 ± 0.095 |
| GACCAA | 1.52 ± 0.083 | 1.71 ± 0.065 |
| GACCAU | 1.64 ± 0.022 | 1.79 ± 0.13 |
| GACCAG | 1.82 ± 0.088 | 1.91 ± 0.13 |
| GACCAC | 1.69 ± 0.056 | 1.85 ± 0.12 |
| CACGCU | 1.722 ± 0.0093 | 1.84 ± 0.12 |
| CACGCC | 1.81 ± 0.044 | 1.86 ± 0.022 |
| CACGCG | 1.73 ± 0.028 | 1.83 ± 0.062 |
| CACGAC | 1.67 ± 0.053 | 1.83 ± 0.13 |
| CACGAU | 1.68 ± 0.032 | 1.83 ± 0.089 |

| Variant | normalized RNA/DNA level without ligand (log10) (cyclic di-GMP [1]) | normalized RNA/DNA level with ligand (log10) (cyclic di-GMP [2]) |
| --- | --- | --- |
| CACGAG | 1.63 ± 0.028 | 1.81 ± 0.076 |
| GACAGU | 1.662 ± 0.0086 | 1.79 ± 0.11 |
| GACAGG | 1.759 ± 0.0092 | 1.85 ± 0.037 |
| GACAGC | 1.74 ± 0.087 | 1.87 ± 0.14 |
| UAAGAG | 1.61 ± 0.017 | 1.74 ± 0.086 |
| UAAGAC | 1.647 ± 0.0022 | 1.82 ± 0.13 |
| UAAGAU | 1.597 ± 0.0022 | 1.79 ± 0.13 |
| UAAGAA | 1.597 ± 0.008 | 1.74 ± 0.13 |
| UAAUUG | 1.71 ± 0.04 | 1.83 ± 0.13 |
| UAAUUA | 1.7 ± 0.018 | 1.85 ± 0.062 |
| UAAUUC | 1.73 ± 0.021 | 1.84 ± 0.099 |
| UAACUA | 1.688 ± 0.0017 | 1.82 ± 0.12 |
| UAACUG | 1.73 ± 0.017 | 1.84 ± 0.13 |
| CAAGGA | 1.46 ± 0.077 | 1.64 ± 0.064 |
| CAAGGU | 1.64 ± 0.037 | 1.8 ± 0.1 |
| CAAGGC | 1.705 ± 0.0097 | 1.82 ± 0.12 |
| CAAGGG | 1.6 ± 0.063 | 1.8 ± 0.072 |
| AACCCG | 1.665 ± 0.014 | 1.81 ± 0.06 |
| AACCCA | 1.621 ± 0.0091 | 1.81 ± 0.13 |
| UACAUC | 1.64 ± 0.037 | 1.81 ± 0.13 |
| UACAUA | 1.712 ± 0.017 | 1.86 ± 0.065 |
| UACAUG | 1.711 ± 0.013 | 1.85 ± 0.14 |
| UACAUU | 1.59 ± 0.034 | 1.78 ± 0.09 |
| AACAAA | 1.45 ± 0.11 | 1.65 ± 0.079 |

| Variant | normalized RNA/DNA level without ligand (log10) (cyclic di-GMP [1]) | normalized RNA/DNA level with ligand (log10) (cyclic di-GMP [2]) |
| --- | --- | --- |
| AACAAC | 1.542 ± 0.01 | 1.75 ± 0.11 |
| UACGAU | 1.63 ± 0.046 | 1.8 ± 0.15 |
| UACGAG | 1.674 ± 0.0019 | 1.82 ± 0.1 |
| UACGAC | 1.67 ± 0.017 | 1.82 ± 0.11 |
| GACAUC | 1.67 ± 0.037 | 1.84 ± 0.059 |
| GACAUU | 1.66 ± 0.044 | 1.8 ± 0.074 |
| GACAUG | 1.61 ± 0.032 | 1.75 ± 0.12 |
| AAAUGG | 1.5 ± 0.092 | 1.68 ± 0.076 |
| GAAGCU | 1.715 ± 0.017 | 1.83 ± 0.11 |
| GAAGCC | 1.78 ± 0.034 | 1.89 ± 0.12 |
| CACAGC | 1.729 ± 0.0089 | 1.84 ± 0.085 |
| CACAGG | 1.68 ± 0.029 | 1.804 ± 0.0089 |
| CACCCA | 1.59 ± 0.097 | 1.75 ± 0.077 |
| CACCCG | 1.81 ± 0.025 | 1.94 ± 0.12 |
| GACACA | 1.63 ± 0.018 | 1.77 ± 0.07 |
| GACACG | 1.7112 ± 0.0013 | 1.82 ± 0.12 |
| GACACC | 1.71 ± 0.044 | 1.83 ± 0.075 |
| AAACGC | 1.67 ± 0.027 | 1.85 ± 0.082 |
| AAACGU | 1.47 ± 0.095 | 1.62 ± 0.18 |
| AAACGA | 1.39 ± 0.15 | 1.57 ± 0.097 |
| CAACUG | 1.75 ± 0.034 | 1.82 ± 0.13 |
| CAACUC | 1.685 ± 0.011 | 1.82 ± 0.086 |
| CAACUA | 1.39 ± 0.069 | 1.6 ± 0.15 |
| CAACUU | 1.49 ± 0.093 | 1.69 ± 0.078 |

| Variant | normalized RNA/DNA level without ligand (log10) (cyclic di-GMP [1]) | normalized RNA/DNA level with ligand (log10) (cyclic di-GMP [2]) |
| --- | --- | --- |
| AACCUG | 1.57 ± 0.029 | 1.73 ± 0.092 |
| AACCUA | 1.51 ± 0.041 | 1.71 ± 0.13 |
| AACCUC | 1.757 ± 0.0019 | 1.85 ± 0.058 |
| AAAGCG | 1.689 ± 0.0061 | 1.78 ± 0.14 |
| AAAGCC | 1.7 ± 0.025 | 1.84 ± 0.13 |
| AAAGCA | 1.656 ± 0.0051 | 1.77 ± 0.11 |
| AACGAC | 1.6 ± 0.04 | 1.79 ± 0.12 |
| AACGAA | 1.38 ± 0.059 | 1.59 ± 0.16 |
| UACGGC | 1.72 ± 0.033 | 1.84 ± 0.1 |
| UACGGG | 1.62 ± 0.048 | 1.79 ± 0.09 |
| UACGGU | 1.6 ± 0.032 | 1.78 ± 0.098 |
| CACACG | 1.75 ± 0.036 | 1.83 ± 0.095 |
| AAAGUA | 1.42 ± 0.076 | 1.66 ± 0.12 |
| AAAGUG | 1.52 ± 0.099 | 1.67 ± 0.074 |
| UAAUCC | 1.8 ± 0.031 | 1.89 ± 0.077 |
| UAAUCA | 1.756 ± 0.0092 | 1.87 ± 0.072 |
| CAACGU | 1.67 ± 0.025 | 1.82 ± 0.096 |
| CAACGC | 1.757 ± 0.014 | 1.84 ± 0.11 |
| CAACGA | 1.56 ± 0.063 | 1.73 ± 0.11 |
| CAACGG | 1.671 ± 0.012 | 1.77 ± 0.061 |
